Assay results as given in publication PMC7610691 (Nature structural & molecular biology, 2020).

Biological target: T1, Smc2 (S. cerevisiae condensin subunit) (S. cerevisiae, UniProt P38989 1-1170)
T1 sequence: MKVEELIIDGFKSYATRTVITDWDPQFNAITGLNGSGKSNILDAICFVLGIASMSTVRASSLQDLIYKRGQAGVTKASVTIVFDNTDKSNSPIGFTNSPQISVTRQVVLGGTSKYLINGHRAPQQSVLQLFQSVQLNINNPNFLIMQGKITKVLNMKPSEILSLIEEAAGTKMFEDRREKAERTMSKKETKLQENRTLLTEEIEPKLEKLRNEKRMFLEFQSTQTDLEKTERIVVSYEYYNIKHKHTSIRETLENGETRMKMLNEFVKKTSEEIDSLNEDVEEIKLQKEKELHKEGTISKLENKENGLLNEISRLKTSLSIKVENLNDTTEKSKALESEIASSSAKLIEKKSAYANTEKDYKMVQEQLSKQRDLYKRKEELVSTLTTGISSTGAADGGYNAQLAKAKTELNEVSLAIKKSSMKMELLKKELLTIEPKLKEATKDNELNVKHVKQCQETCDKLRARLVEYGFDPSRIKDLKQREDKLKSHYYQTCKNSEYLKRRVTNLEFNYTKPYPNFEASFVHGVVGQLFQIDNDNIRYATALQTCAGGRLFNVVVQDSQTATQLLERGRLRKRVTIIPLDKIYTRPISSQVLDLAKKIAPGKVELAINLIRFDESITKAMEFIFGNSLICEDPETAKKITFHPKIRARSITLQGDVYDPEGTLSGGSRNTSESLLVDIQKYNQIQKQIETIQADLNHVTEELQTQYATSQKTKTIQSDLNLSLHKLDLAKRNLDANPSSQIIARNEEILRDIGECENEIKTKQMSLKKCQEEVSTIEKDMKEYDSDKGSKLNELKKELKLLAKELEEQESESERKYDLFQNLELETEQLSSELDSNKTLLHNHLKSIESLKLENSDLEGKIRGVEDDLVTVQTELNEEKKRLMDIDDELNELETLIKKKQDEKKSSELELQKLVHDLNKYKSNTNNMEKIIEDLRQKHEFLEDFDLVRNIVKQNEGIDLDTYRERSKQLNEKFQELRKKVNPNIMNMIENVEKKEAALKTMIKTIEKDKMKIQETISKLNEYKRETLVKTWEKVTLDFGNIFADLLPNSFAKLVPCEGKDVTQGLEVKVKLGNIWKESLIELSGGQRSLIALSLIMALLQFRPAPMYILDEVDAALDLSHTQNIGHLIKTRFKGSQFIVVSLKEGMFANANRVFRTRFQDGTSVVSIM
Test: cryo-EM structure

B1: Ycg1 (S. cerevisiae condensin HEAT-repeat subunit) (natural protein)
chain: MQDPDGIDINTKIFNSVAEVFQKAQGSYAGHRKHIAVLKKIQSKAVEQGYEDAFNFWFDKLVTKILPLKKNEIIGDRIVKLVAAFIASLERELILAKKQNYKLTNDEEGIFSRFVDQFIRHVLRGVESPDKNVRFRVLQLLAVIMDNIGEIDESLFNLLILSLNKRIYDREPTVRIQAVFCLTKFQDEEQTEHLTELSDNEENFEATRTLVASIQNDPSAEVRRAAMLNLINDNNTRPYILERARDVNIVNRRLVYSRILKSMGRKCFDDIEPHIFDQLIEWGLEDRELSVRNACKRLIAHDWLNALDGDLIELLEKLDVSRSSVCVKAIEALFQSRPDILSKIKFPESIWKDFTVEIAFLFRAIYLYCLDNNITEMLEENFPEASKLSEHLNHYILLRYHHNDISNDSQSHFDYNTLEFIIEQLSIAAERYDYSDEVGRRSMLTVVRNMLALTTLSEPLIKIGIRVMKSLSINEKDFVTMAIEIINDIRDDDIEKQEQEEKIKSKKINRRNETSVDEEDENGTHNDEVNEDEEDDNISSFHSAVENLVQGNGNVSESDIINNLPPEKEASSATIVLCLTRSSYMLELVNTPLTENILIASLMDTLITPAVRNTAPNIRELGVKNLGLCCLLDVKLAIDNMYILGMCVSKGNASLKYIALQVIVDIFSVHGNTVVDGEGKVDSISLHKIFYKVLKNNGLPECQVIAAEGLCKLFLADVFTDDDLFETLVLSYFSPINSSNEALVQAFAFCIPVYCFSHPAHQQRMSRTAADILLRLCVLWDDLQSSVIPEVDREAMLKPNIIFQQLLFWTDPRNLVNQTGSTKKDTVQLTFLIDVLKIYAQIEKKEIKKMIITNINAIFLSSEQDYSTLKELLEYSDDIAENDNLDNVSKNALDKLRNNLNSLIEEINERSETQTKDENNTANDQYSSILGNSFNKSSNDTIEHAADITDGNNTELTKTTVNISAVDNTTEQSNSRKRTRSEAEQIDTSKNLENMSIQDTSTVAKNVSFVLPDEKSDAMSIDEEDKDSESFSEVC
**Q.** Does B1 bind?
**A.** Result: binds
